Experimental findings from paper PMC9076600, “Ultrasensitive detection of Staphylococcal enterotoxin B in milk based on target-triggered assembly of the flower like nucleic acid nanostructure†” are described below.

What all share (test): Binding buffer not stated; […] (50 uM) […]
For data set [1], the target named is Staphylococcal enterotoxin A (SEA) (UniProt P0A0L2 25-257).
A further data set deals with OVA (UniProt P01012 2-386).
For data set [2], the target named is Staphylococcal enterotoxin B (SEB) (UniProt P01552 28-266).
Staphylococcal enterotoxin B (SEB), sequence (P01552 28-266): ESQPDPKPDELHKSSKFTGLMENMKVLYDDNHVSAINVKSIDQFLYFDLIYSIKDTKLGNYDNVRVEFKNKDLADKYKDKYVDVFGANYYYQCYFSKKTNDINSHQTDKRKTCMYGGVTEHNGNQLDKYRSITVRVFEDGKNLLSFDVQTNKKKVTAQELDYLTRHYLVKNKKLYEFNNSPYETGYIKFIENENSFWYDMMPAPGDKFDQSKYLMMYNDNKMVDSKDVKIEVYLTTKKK

OVA, sequence (P01012 2-386): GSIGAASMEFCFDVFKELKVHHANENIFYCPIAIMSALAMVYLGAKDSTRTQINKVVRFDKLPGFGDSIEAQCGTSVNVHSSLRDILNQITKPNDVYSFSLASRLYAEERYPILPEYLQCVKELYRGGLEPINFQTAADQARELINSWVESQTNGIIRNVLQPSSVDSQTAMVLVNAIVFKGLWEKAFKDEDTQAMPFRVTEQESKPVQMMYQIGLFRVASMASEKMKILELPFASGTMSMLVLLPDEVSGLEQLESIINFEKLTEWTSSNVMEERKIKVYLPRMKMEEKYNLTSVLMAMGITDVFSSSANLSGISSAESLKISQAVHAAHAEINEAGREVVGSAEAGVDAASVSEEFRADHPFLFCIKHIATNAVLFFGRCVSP
Staphylococcal enterotoxin A (SEA), sequence (P0A0L2 25-257): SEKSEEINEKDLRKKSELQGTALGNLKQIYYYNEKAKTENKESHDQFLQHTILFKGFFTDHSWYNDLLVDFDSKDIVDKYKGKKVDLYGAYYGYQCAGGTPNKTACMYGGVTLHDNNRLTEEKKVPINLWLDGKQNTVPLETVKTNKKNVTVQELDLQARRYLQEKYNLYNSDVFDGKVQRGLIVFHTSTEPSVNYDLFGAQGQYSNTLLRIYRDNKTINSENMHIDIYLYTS

B1: SEB aptamer (ssDNA)
DNA: GGTATTGAGGGTCGCATCCACTGGTCGTTGTCTGTTGTCTGTTATGTTGTTTCGTGATGGCTCTAACTCTCCTCT
For the molecule B1, the figures for the binding result (in data set [1]; with OVA; in data set [2]) were “no binding”, “no binding” and “binds”, respectively.
